Consider two molecules from patent US6117976, “Manufacture and use of polypeptides tagged using binding molecules” (Medical Research Council, dated 2000).

No end group written: not given here. Some results are limits rather than exact numbers.

The experiment deals with calmodulin (Homo sapiens (Human)). Briefly: not stated (off-rate from calmodulin).

By koff is commonly meant a measure of how fast the partners let go of each other. For the molecule CEIKRAAAINLKALAALAKKIL (also: fluorescein label, site not given here) [TAG 2 peptide, fluoresceinated], the koff is < 0.0001 s⁻¹.
Under CEIKRAAAINLKALAALAKKILIK (also: fluorescein label, site not given here) [TAG 4 peptide, fluoresceinated] stands < 0.0001 s⁻¹.
